The values that follow come from publication PMC10515009, “A regulatory GhBPE-GhPRGL module maintains ray petal length in Gerbera hybrida”.

The target in the series is T1, GST-N-GhBPE (Gerbera hybrida).
T1 chain: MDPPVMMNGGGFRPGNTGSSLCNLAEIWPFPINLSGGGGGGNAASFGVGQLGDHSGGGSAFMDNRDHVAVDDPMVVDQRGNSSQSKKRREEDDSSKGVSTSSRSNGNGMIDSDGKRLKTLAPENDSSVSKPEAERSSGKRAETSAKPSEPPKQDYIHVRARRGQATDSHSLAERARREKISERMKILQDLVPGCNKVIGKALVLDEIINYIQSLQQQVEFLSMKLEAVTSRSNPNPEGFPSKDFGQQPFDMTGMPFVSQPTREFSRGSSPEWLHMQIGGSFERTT
Description: EMSA; LightShift Chemiluminescent EMSA kit; buffer, salt, pH and temperature not stated (as Han et al. 2017). The conditions noted are these: protein: recombinant; vector pET32-GST; label: 5' biotin (Methods); blunt. (Mobility shift assays separate free from complexed probe on a gel.)

B1: MUT-probe2 (both JA response elements mutated) (dsDNA)
DNA 1: AACACATAAAAAAATCTGTGGTTTTATTGGTTTGTTATTTATCAGATACATTTTAAATATTTAATCGATAATCAAATTTTTTATTAAACACCCACCCCCA
DNA 2: TGGGGGTGGGTGTTTAATAAAAAATTTGATTATCGATTAAATATTTAAAATGTATCTGATAAATAACAAACCAATAAAACCACAGATTTTTTTATGTGTT
As for B1, the binding result is listed as “no binding”.
